We go through 1 molecule from patent US20260049134A1 (UNIVERSITY OF FLORIDA RESEARCH FOUNDATION, published 2026).

The target of test [1] is T1, HHLA2 (B7-H7).
T1 construct: coated protein in the ELISA; also called HHLA2-Fc (R&D Systems)
T1 chain: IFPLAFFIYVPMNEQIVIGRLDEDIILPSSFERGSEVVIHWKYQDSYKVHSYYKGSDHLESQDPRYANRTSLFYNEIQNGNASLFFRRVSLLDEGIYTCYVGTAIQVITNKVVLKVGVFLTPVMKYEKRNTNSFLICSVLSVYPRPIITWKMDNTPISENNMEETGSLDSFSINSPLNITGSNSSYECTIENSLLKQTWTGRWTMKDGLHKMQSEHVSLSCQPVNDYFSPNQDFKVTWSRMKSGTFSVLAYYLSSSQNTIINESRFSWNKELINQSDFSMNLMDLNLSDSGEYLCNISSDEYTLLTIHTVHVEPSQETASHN
In words: ELISA on coated HHLA2-Fc. On the procedure: (§1) Recombinant purified ECDs (50-150 ng) of each putative target protein were coated, incubated with 150 ng of the indicated primary antibody, and binding was detected using a peroxidase-conjugated anti-human Fab secondary antibody. Heatmap represents averages of technical triplicates. (8B) Target validation via siRNA knockdown. H929 cells were transfected with siRNA pools targeting the putative antibody targets ICAM1, CADM1, and PTPRG. Cells were then subjected to cognate IgG binding analysis via flow cytometry. (NT, non-targeting siRNA).
(§2) ELISA ELISA was conducted as described previously. Briefly, 50-150 ng of antigen was coated overnight in half-area 96-well plates at 4° C., blocked with 3% BSA at 37° C. for 1 h, and 150 ng of chimeric rabbit/human IgG1 was added, incubating for 2 h at 37° C. […] After incubating at 37° C. for 15 min-1 h (depending on intensity of controls), data were acquired using a SpectraMax M5 plate reader (Molecular Devices).
Background: An ELISA detects its analyte on a solid surface through an enzyme-linked reagent.

Test [2] addresses T2, APP.
T2 construct: His-tagged; coated protein in the ELISA; also called APP-His (Acro Biosystems)
In words: ELISA on coated APP-His, 150 ng IgG1; None 0.092. The procedure:
as §1, §2

The target in test [3] is T3, GARS-His (Sino Biological) (human, UniProt P41250 37-739, limits assumed).
T3 construct: Bought; also called GARS1; glycyl-tRNA synthetase; not shown: His tag of the bought protein
T3 sequence: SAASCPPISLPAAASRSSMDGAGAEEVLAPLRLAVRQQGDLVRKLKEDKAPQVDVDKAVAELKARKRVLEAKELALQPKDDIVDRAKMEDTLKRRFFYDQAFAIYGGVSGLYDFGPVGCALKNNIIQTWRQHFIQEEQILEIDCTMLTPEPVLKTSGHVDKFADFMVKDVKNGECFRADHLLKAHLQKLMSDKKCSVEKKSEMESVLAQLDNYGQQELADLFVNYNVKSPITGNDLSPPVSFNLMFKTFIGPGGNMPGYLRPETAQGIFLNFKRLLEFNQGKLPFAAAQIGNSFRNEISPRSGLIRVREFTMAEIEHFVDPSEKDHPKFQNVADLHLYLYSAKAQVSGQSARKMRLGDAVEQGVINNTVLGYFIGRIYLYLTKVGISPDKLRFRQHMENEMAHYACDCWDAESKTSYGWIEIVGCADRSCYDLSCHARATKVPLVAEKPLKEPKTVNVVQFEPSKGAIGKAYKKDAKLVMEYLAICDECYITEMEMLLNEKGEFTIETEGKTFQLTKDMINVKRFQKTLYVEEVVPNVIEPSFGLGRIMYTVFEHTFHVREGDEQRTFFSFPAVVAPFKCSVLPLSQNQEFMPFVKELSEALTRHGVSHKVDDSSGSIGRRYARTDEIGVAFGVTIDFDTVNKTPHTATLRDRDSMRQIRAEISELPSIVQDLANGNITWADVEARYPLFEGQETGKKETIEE
Kind of test: ELISA on coated GARS-His, 150 ng IgG1; None 0.099. The procedure: as §1, §2

The target in test [4] is T1, HHLA2 (B7-H7). Kind of test: ELISA on coated HHLA2-Fc, 150 ng IgG1; None 0.087. The procedure:
as §1, §2

Test [5] deals with T4, ANXA1.
T4 construct: coated protein in the ELISA; also called ANXA1-His (R&D Systems)
T4 chain: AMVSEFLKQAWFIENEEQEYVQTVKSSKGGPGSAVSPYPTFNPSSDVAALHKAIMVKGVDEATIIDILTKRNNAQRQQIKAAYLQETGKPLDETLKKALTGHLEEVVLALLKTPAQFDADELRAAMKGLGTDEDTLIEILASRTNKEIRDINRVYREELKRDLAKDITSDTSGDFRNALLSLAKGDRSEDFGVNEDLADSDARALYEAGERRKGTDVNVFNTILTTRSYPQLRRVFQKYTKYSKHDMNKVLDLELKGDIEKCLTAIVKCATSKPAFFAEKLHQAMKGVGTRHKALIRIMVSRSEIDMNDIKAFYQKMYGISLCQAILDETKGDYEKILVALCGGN
Kind of test: ELISA on coated ANXA1-His, 150 ng IgG1; None 0.098. The procedure:
as §1, §2

Test [6] addresses T5, CADM1-His (Acro Biosystems) (human, UniProt Q9BY67 45-374).
T5 construct: Bought; also called CADM1/IGSF4A; not shown: His tag of the bought protein
T5 sequence: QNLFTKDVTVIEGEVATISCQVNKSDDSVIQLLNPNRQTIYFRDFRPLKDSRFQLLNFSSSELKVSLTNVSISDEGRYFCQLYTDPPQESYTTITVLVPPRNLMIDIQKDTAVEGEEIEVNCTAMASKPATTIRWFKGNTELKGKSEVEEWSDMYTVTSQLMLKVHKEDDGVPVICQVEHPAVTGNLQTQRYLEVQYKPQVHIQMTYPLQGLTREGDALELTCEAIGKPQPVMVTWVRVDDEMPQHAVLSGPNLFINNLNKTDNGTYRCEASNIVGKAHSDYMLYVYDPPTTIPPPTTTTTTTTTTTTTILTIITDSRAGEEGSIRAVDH
In words: ELISA on coated CADM1-His, 150 ng IgG1; None 0.059. The procedure:
as §1, §2

In test [7] the target is T6, SELL (L-Selectin).
T6 construct: coated protein in the ELISA; also called SELL-Fc-His (R&D Systems)
T6 chain: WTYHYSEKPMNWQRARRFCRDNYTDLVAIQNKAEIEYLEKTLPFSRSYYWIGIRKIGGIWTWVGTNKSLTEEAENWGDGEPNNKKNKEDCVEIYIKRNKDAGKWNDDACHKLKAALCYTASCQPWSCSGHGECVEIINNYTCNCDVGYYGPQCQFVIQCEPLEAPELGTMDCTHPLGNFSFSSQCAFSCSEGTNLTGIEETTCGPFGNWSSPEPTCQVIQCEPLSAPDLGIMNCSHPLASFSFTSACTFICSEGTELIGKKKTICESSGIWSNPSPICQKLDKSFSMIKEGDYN
Kind of test: ELISA on coated SELL-Fc-His, 150 ng IgG1; None 0.096. On the procedure: as §1, §2

B1: HW-16 chimeric rabbit-human IgG1 LA/LA/PG (antibody, V domains shown)
VH: QSLEESGGRLVTPGTPLTLTCTASGFSLSSYAMSWVRQAPGKGLEWIGTMPTGGGTYYASWAKGRFTISKTSTTVDLQITSPTTEDTATYFCAKHWNIWGPGTLVTISS
VL: DIVLTQTPSSTSTAVGDTVTINCRASQSIGRNLAWFQQKPGQPPKLLIYRASNLASGVPSRFKGSGSRTQFTLTISGVQREDAATYYCLGSYSSSDTAFGGGTELEILR
notes: Fc-silenced (L234A/L235A/P329G) IgG1, kappa; Alexa Fluor 647-labeled in single-step flow cytometry; Cluster C-45
On to B1, for which, in test [1], the binding result is given as “no binding (tested: 150 ng IgG1 per well)”. The “ELISA Absorbance (405 nm-570 nm)” value in test [2] stood at 0.225; in test [3], 0.718; in test [4] it was 0.092; in test [5] it was 0.111; in test [6], 0.067; in test [7] it was 0.177.
